Assay [1] deals with T1, human OX40 on cells (CHO-K1-hOX40, CHO-OX40, Jurkat-OX40 reporter cells) (human, UniProt P43489 29-277).
T1 construct: also called human OX40-transfected CHO cell; CD134
T1 sequence: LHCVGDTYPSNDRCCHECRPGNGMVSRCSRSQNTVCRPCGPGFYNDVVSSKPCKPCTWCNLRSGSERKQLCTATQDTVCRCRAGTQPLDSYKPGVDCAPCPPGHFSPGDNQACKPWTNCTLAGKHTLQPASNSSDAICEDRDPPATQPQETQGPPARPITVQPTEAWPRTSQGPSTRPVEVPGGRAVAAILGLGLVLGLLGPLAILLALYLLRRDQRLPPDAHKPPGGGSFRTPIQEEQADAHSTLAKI
Put plainly: FACS on human OX40 transfected CHO cells. The procedure: Cell binding affinity of PD-L1/OX40 antibodies were measured against CHO (ATCC, #CCL-61) overexpressing human PD-L1 (CHO-PD-L1) and CHO overexpressing OX40 (CHO-OX40), respectively. Briefly, 5×10⁵ cells were seeded into each well of a 96-well plate (Corning, #3799). Cells were centrifuged at 400 g for 5 minutes and supernatants were discarded. For each well, 100 μl of 3× serial dilution of antibodies starting from 100 nM were then added and mixed with the cells. After 60 minutes of 4° C. incubation, plates were washed several times to remove excess antibodies. […] After another round of centrifugation and washing, cells were resuspended in FACS buffer for reading on a CytoFLEX Flow Cytometer (Beckman Coulter). Median Fluorescence Intensity (MFI) readouts were plotted against antibody concentration and analyzed with GraphPad Prism 8.0.

Assay [2] concerns the target T2, recombinant human OX40/His fusion protein (Novoprotein, CB17) (human, UniProt P43489 29-216).
T2 construct: Bought protein
T2 sequence: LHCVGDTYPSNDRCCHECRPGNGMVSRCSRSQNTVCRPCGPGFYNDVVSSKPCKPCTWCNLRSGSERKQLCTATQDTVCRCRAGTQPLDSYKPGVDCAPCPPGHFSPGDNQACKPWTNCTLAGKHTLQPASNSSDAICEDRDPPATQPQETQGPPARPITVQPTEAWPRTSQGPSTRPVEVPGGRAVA
The experiment in a line: BLI (Octet RED96), antibody on AHC sensor, OX40/His as analyte, test group 4. The procedure: All 17 antibodies in Table 4 were expressed by transient transfection of HEK293 cell, purified by Protein A chromatography, and assayed for and ranked by dissociation rate constant (koff). Briefly, antibodies binding affinities and kinetics were characterized by Octet® RED96 biolayer interferometry (Pall FortéBio LLC). Antibodies were captured by Anti-hIgG Fc Capture (AHC) Biosensors (Pall) at a concentration of 100 nM for 120 seconds. After that, sensors were dipped into running buffer (1× pH 7.2 PBS, 0.05% Tween 20, 0.1% BSA) for 60 seconds to check the baseline, then dipped into recombinant human OX40/His fusion protein (Novoprotein, CB17) at assigned concentration for 200 seconds to measure binding, followed by dipped into running buffer for 600 seconds for dissociation. The assay was conducted in four test groups (as listed in Table 5) all containing the EM1007-044c chimeric antibody as the basis for normalization. The association and dissociation curves were fitted to a 1:1 Langmuir binding model using ForteBio Data Analysis software (Pall) to obtain the off-rate constants as shown in Table 5 below. The off-rate of each antibody was compared to that of the EM1007-mAb044c chimeric antibody in the same test group obtained in parallel to produce the corresponding off-rate ratio, serving as a normalized index. […]
In general terms: BLI is a label-free optical method that tracks binding on a fibre tip over time.

For assay [3], the target named is T3, ΔCRD1-3 (human, UniProt P43489).
T3 construct: extracellular domain without CRD1, CRD2 and CRD3 (CRD4 left); also called truncated OX40 variant lacking CRD1, CRD2 and CRD3
T3 sequence (truncated extracellular domain, looked up): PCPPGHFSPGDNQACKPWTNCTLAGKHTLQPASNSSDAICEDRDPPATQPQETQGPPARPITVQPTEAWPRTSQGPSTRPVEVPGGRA
The experiment in a line: ELISA, OX40 variant coated at 1 µg/ml, HRP-labeled secondary antibody, OD 450 nm. The source says: The 4 cysteine rich domains (CRD) from OX40 extracellular domain were identified from UniProt (Identifier: P43489), and full length of extracellular OX40 (CRD1-4) and truncated OX40 variants ΔCRD1 (lacking CRD1), ΔCRD1-2 (lacking CRD1 and CRD2), ΔCRD1-3 (lacking CRD1, CRD2 and CRD3), mCRD1 (CRD1-4 with CRD1 domain therein replaced by murine CRD1), mCRD2 (CRD1-4 with CRD2 domain therein replaced by murine CRD2), mCRD3 (CRD1-4 with CRD3 domain therein replaced by murine CRD3), and mCRD4 (CRD1-4 with CRD4 domain therein replaced by murine CRD4) were synthesized by Biointron. The binding of HuEM1007-044-16, OX40-Tab1 (WO2015153513), OX40-Tab2 (WO2020151761) to OX40 or OX40 truncated proteins were analyzed using ELISA to identify the pertinent binding epitope. Briefly, OX40 variants were each coated at 1 μg/ml onto a 96 well plate (Corning, #3361) which was incubated overnight at 4° C., washed with PBS containing 0.05% Tween 20, blocked with blocking buffer (PBS containing 0.05% Tween 20 and 2% BSA) at 37° C. for 2 hours. On the coated and blocked plate, serially diluted antibodies were added and incubated at 37° C. for 1 hour, washed for 3 times, then added HRP-labeled secondary antibody. Tetramethylbenzidine (TMB) chromogenic solution was added for color development for 5 minutes then the reaction was quench with 1M HCl. Absorbance at 450 nm (OD450) was measured on a microplate reader.
In general terms: ELISA stands for enzyme-linked immunosorbent assay.

B1: HuEM1007-044-16 (antibody, human IgG1, kappa, L234A L235A, V domains shown)
VH: EVQLQQSGAEVKKPGSSVKVSCKASGHAFSSSWMNWVKQRPGKGLEWIGRIYPGDEITNYNAKFKDKATLTADKSTSTAYMELSSLRSEDTAVYYCARDLLMPYWGQGTLVTVSS
VL: DIVMTQTPLSLPVTPGEPASISCRSSKSLLYSNAITYLYWYLQKPGQSPQLLIYQMSNLAPGVPDRFSSSGSGTDFTLKISRVEAEDVGVYYCAQNLELPFTFGQGTKLEIKR
notes: Humanized anti-OX40, human IgG1 LALA / kappa; parental antibody of FIT1014-20a; also called HuEM1007-44-16; parental OX40 antibody
In general, EC50 refers to the concentration needed to bring the measured effect to its halfway point. A higher EC50 goes with a need for much substance. Usually koff stands for the rate constant with which the complex falls apart. The molecule B1 registered an EC50 in assay [1] of 1.8 nM. In assay [2], the “Normalized Index (off-rate ratio to EM1007-mAb044c)” value is 126% and the koff is 0.000352 s⁻¹. Besides, the binding result in assay [3] is on record as “no binding (tested: about 25 nM)”.

The record behind these values is patent publication US20250282881A1 (SHANGHAI EPIMAB BIOTHERAPEUTICS, published 2025).
